Data reported in the nanobody polyreactivity screen of Harvey et al. (2022).

Experiment: yeast display, Sf9 membrane polyspecificity reagent, FACS + sequencing; frameworks hold sequencing errors
How it was run: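 Genes from sorted yeast were amplified by colony PCR, read by MiSeq 2 × 250 sequencing and filtered on CDR length. These cells carried a synthetic nanobody library in Saccharomyces cerevisiae BJ5465 and were sorted by FACS into low and high (top ~1%) gates on anti-HA and streptavidin fluorescence. Polyreactivity is labelled according to the gate of origin.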

## QVQLVESGGGLVQAGGSLRLSCAASGFTFWDYAMGWYRQAPGKERELVAAISSRGTRTYYADSVKGRFTISRDNAKNTVYLQMNSLKPEDTAVYYCATAIPDPDYIHNYWGQGTQVTVSS
  polyreactivity (PSR sort gate): high polyreactivity

## QVQLVESGGGLVQAGGSLRLSCAASGFTFWDYAMGWYRQAPGKERELVATISVGGGSTYYADSVKGRFTISRDNSKNSVYLQMNSLKPEDTAVYYCAADRSYYLAGYDYWGQGTQVPVSS
  polyreactivity (PSR sort gate): low polyreactivity

## QVQLVESGGGLVQAGGSLRLSCAASGFTFWDYTMGWYRQAPGKERELVAAISSSGGGTYYADSVKGRFTISRDNAKNTVYLQMNSLKPVDTAVYYCAASVWYYPMDYWGQGTQVTVSS
  polyreactivity (PSR sort gate): low polyreactivity

## QVQLVESGGGLVQAGGSLRLSCAASGFTFWEYAMGWYRQAPGKERELVAAIRDRGVNTYYADSVKGRFTISRDNAKNTVYLQMNSLKPVDTAVYYCAKSTRRGGVALGEYDYWGQGSQVTVSS
  polyreactivity (PSR sort gate): low polyreactivity

## QVQLVESGGGLVQAGGSLRLSCAASGFTFWGNAMGWYRPAPGKERELVAAITDTGSTNYADSVKGRFTISRDNAKNTVYLQMNSLKPEDTAVYYCAKDKAYYDWGQTNGYWGQGTQVTVSS
  polyreactivity (PSR sort gate): low polyreactivity

## QVQLVESGGGLVQAGGSLRLSCAASGFTFWGYTMGWYRQAPGKERELVAAITSTGSTYYAYSVKGRFTISRDNAKNTVYLQMNSLKPEDTSVYYCATARSYLTYSYHYDYWGQGTQVTVSS
  polyreactivity (PSR sort gate): low polyreactivity

## QVQLVESGGGLVQAGGSLRLSCAASGFTFWKYAMGWYRQAPGKERELVATITSSGDNTYYADSVKGRFTISRDNAKNNVYLQMNSLKPEDTAVYYCAADNGYHYNFDYWGQGTQVTVSS
  polyreactivity (PSR sort gate): low polyreactivity

## QVQLVESGGGLVQAGGSLRLSCAASGFTFWLYAMGWYRQAPGKERELVAAIDWDCGTYYADSVKGRFTISRDNAKNTVYLQMNSLKPEDTAVYYCAARYRYYYTRYDYWGQGTQVTVSS
  polyreactivity (PSR sort gate): high polyreactivity

## QVQLVESGGGLVQAGGSLRLSCAASGFTFWRNAMGWYRQAPGKERELVAAISASGGSTYYADSVKGRFTISRDYAKNTVYLQKNSLKPEDTAVYYCAADTQGFYRYDYWGQGTQVTVSS
  polyreactivity (PSR sort gate): low polyreactivity

## QVQLVESGGGLVQAGGSLRLSCAASGFTFWRNTMGWSRQAPGKERELVAAIDRSGSSTYYADSEKGRFTISRDNATNTVYLQMNSLKPEDTAVYYCAAAHTYFTPYGDYWGQGTQVTVSS
  polyreactivity (PSR sort gate): low polyreactivity

## QVQLVESGGGLVQAGGSLRLSCAASGFTFWRNVMGWYRQAPGKERELVAAITRSGGSTYYADSVKGRFTISRDNAKNTVYLQMNSLKPEDTAVYYCNAVRHGGYDYLGQGTQVTVSS
  polyreactivity (PSR sort gate): high polyreactivity

## QVQLVESGGGLVQAGGSLRLSCAASGFTFWTNAMGWYRQAPGKERELVAAITSSGGTTYYADSVKGRFTISRDNAKNTVYLQMNSLKPEDTAVYYCAAELGGYVASYYYPGYDYWGQGTQVTVSS
  polyreactivity (PSR sort gate): low polyreactivity

## QVQLVESGGGLVQAGGSLRLSCAASGFTFWVYAMGWYRQAPGKEREFVAAISGIGDDTNYADSVKGRFTISRDNAKNTVYLQMNSLKPEDTAVYYCATVALRYYGVTEFDYWGQGTQVTVSS
  polyreactivity (PSR sort gate): high polyreactivity

## QVQLVESGGGLVQAGGSLRLSCAASGFTFWWYTMGWYRQAPGKERELVAAITWSGSRTYYADSVKGRFTISRDNAKNTVYLQMNSLKPEDTAVYYCAATYLKVHGEYDYWGQGTQVTVSS
  polyreactivity (PSR sort gate): high polyreactivity

## QVQLVESGGGLVQAGGSLRLSCAASGFTFWYNTMGWYRQAPGKERELVAAINRGGGRTYYADSVKGRFTISRDNAKNTVYLQMNSLKPEDTAVYYCAKKDYYSKVGGPQSEYDYWGQGTQVTVSS
  polyreactivity (PSR sort gate): low polyreactivity

## QVQLVESGGGLVQAGGSLRLSCAASGFTFWYYAMGWYRQAPGKERELVAAISRSGTSTYYADSVKGRFTISRDNAKNTVFLQMNCLKPEDSAVYYCNVLRVNSITYLMDYWVQGTQVTVSS
  polyreactivity (PSR sort gate): high polyreactivity

## QVQLVESGGGLVQAGGSLRLSCAASGFTFWYYAMGWYRQAPGKERELVASISSIGGSTYYADSVKGRFTISRDNAKNTVYLQMNSLKPEDTAVYYCAADRSSNGLMPGSKNEYWGQGTEVTVSS
  polyreactivity (PSR sort gate): high polyreactivity

## QVQLVESGGGLVQAGGSLRLSCAASGFTFWYYAMGWYRQAPGKERELVATISRGGGSTYYADSVKGRFTISRDNAKNTVYLQMNSLKPEDTAVYYCNAALTRVSRFWGGDYYYWGQGTQVTVSS
  polyreactivity (PSR sort gate): high polyreactivity

## QVQLVESGGGLVQAGGSLRLSCAASGFTFWYYDMGWYRQAPGKERELVAAISRSGTSTYYADSVKGRFTISRDNAKNTVYLQMNSLKPEDTAVYYCNKVRNTRSYDYWGQGTQVTVSS
  polyreactivity (PSR sort gate): high polyreactivity

## QVQLVESGGGLVQAGGSLRLSCAASGFTFYAYAMGWYREAPGKERELVATIRRSTGSTYYADSVKGRFTISRDNAKNTVYLQMNSLKQQDTAVYYFATRVWFPITSYDYWGQGTQVTVSS
  polyreactivity (PSR sort gate): low polyreactivity

## QVQLVESGGGLVQAGGSLRLSCAASGFTFYAYAMGWYRQAPGKERELVAAITWDDDSTSYADSVKGRFTISRDNAKNTVYLQMNSLKPEDTAVYYCAADSIRHRRYKYDYWGQGTQVTVSS
  polyreactivity (PSR sort gate): low polyreactivity

## QVQLVESGGGLVQAGGSLRLSCAASGFTFYDYAMGRYIQAPGKERELVAGINSGDSTYYADSVKGRFTISRDNAKNSVYLLMNSLKPEDSAVYYCAADWAWLQWAYDYWGQGTQVTVSS
  polyreactivity (PSR sort gate): low polyreactivity

## QVQLVESGGGLVQAGGSLRLSCAASGFTFYGNAMGSSRQAPGKEREWVAAITSTGNTYYADSVTGRFTISRDNAKNTVYLQMNSLKPEDTAVYYCARRGDILYDYWGQGTQVTVSS
  polyreactivity (PSR sort gate): low polyreactivity

## QVQLVESGGGLVQAGGSLRLSCAASGFTFYGYAKGWYRQAPGKERELVAAISKRGGSTYYADSVKGRFTISRDNAKNPVYLQMNSLKPEDTAVYYCNADKHYQYRYRQYGYWGQGTQVTVSS
  polyreactivity (PSR sort gate): high polyreactivity

## QVQLVESGGGLVQAGGSLRLSCAASGFTFYGYAMGWYRQAPGKERELVAAISRSGVRTYYADSVKGRFTISRDNAKNTVYLQMNSLKPEDTAVYYCNAVPRYGYYWGQGTQVTVSS
  polyreactivity (PSR sort gate): high polyreactivity

## QVQLVESGGGLVQAGGSLRLSCAASGFTFYGYAMGWYRQAPGKERELVAAITSSGGSTYYADSVKGRFTISRDNAKNTVYLQMNSLKPEDTAVYYCAVVTILVFRYVVPYDYWGQGTQVTVSS
  polyreactivity (PSR sort gate): high polyreactivity

## QVQLVESGGGLVQAGGSLRLSCAASGFTFYGYTMGWYRQAPGKERELVAAINKSGSSTYYADSEKGRFTISRDNAKNTVYLQMNSLKPEDTAVYYCNAYYRKVLGYDKMDYWGQGTQVTVSS
  polyreactivity (PSR sort gate): high polyreactivity

## QVQLVESGGGLVQAGGSLRLSCAASGFTFYHYAMGWYRQAPGKERELVAAIDNGGSTYADSVKGRFTISRDNAKNTVYLQMNSLKPEDTAVYYCAAVYLRYINGFYYWGQGTQVTVSS
  polyreactivity (PSR sort gate): low polyreactivity

## QVQLVESGGGLVQAGGSLRLSCAASGFTFYIYAMGWYRQAPGKERELVAAINFRGGSTYYADSVKGRFTISRDNAKNTVYLQMNSLKPEDTAVYYCAARSRDKYDYWGQGTQVTVSS
  polyreactivity (PSR sort gate): high polyreactivity

## QVQLVESGGGLVQAGGSLRLSCAASGFTFYKNAMGWYRQAPGKERELVAAITRRGSRTYYADSVKGRFTISRDNAKNTVYLQMNSLKPEDTAVYYCAADDGSDAEYYYWGQGTQVTVSS
  polyreactivity (PSR sort gate): high polyreactivity

## QVQLVESGGGLVQAGGSLRLSCAASGFTFYKNTMGWYRQAPGKVRELGAAISSSGSSTYYADSVKGRFTISRDNAKTTVYLQMNSLKPEDTAVYYCAAVSHYPAGYDYWGQGTQVTVSS
  polyreactivity (PSR sort gate): high polyreactivity

## QVQLVESGGGLVQAGGSLRLSCAASGFTFYKYALGWYRQAPGKERELVAAISNSGGSTYYADSVKGRFTISRDNAKNTVYLQMNCLKPEDTAVYYCAKLSDSITLYGYWGQGTQVNVSS
  polyreactivity (PSR sort gate): high polyreactivity

## QVQLVESGGGLVQAGGSLRLSCAASGFTFYKYAMGWYRPAPGKERELVAAITWSGGRTYYADSVKGRFTISRDNAKNTVYLKMNSLKPEDTAVYYCTARQKQGNFDYWGQGTQVTVSS
  polyreactivity (PSR sort gate): high polyreactivity

## QVQLVESGGGLVQAGGSLRLSCAASGFTFYKYAMGWYRQAPGKERELVAAISRRGTSTYYADSVKGRFTISRDNAKNTVYLQMNSLKPEDTAVYYCAAEIWSYPAYDYWGQGTQVTVSS
  polyreactivity (PSR sort gate): high polyreactivity

## QVQLVESGGGLVQAGGSLRLSCAASGFTFYLNAMGWYRQAPGKERELVAAITRRGTSTYYADSVKGRFTISRDNAKNTVYLQMNSLKPEDTAVYYCAARPLDYWGQGTQVTVSS
  polyreactivity (PSR sort gate): high polyreactivity

## QVQLVESGGGLVQAGGSLRLSCAASGFTFYLYAMGWYRQAPGKERELVASISSGGRTKYADSVKGRFSISRDNAMNTVYLQMNSLKPEDTAVYYCAARGYFTRQFTPYDYWGQGTQVTVSS
  polyreactivity (PSR sort gate): high polyreactivity

## QVQLVESGGGLVQAGGSLRLSCAASGFTFYLYTMGWYRQAPGKERELVATITSDGGTNYADSVKGRFTISRDNAKNTVYLQMNSLKPEDTAVYYCNAASRRGSRKQAKYDFWGQGTQVTVSS
  polyreactivity (PSR sort gate): low polyreactivity

## QVQLVESGGGLVQAGGSLRLSCAASGFTFYLYTMGWYRQAPGKERELVATITSDGGTNYADSVKGRFTISRDNAKNTVYLQMNSLTPEDTAVYYCARDYLSPYAVDYWGQGTQVTVSS
  polyreactivity (PSR sort gate): low polyreactivity

## QVQLVESGGGLVQAGGSLRLSCAASGFTFYLYTMGWYRQAPGKERELVATITSDGGTNYADSVKGRFTISRDNAKYTVYLQMNSLKPEDTAVYYCNAASRRGSRKQAKYDYWGQGTQVTVSS
  polyreactivity (PSR sort gate): low polyreactivity

## QVQLVESGGGLVQAGGSLRLSCAASGFTFYNNAMGWYRQAPGKERELVAAISRSGGSTHYADSVKGRFTISRDTAKNTVYLQMNSLKPEDNAVYYCAKVGVLGYYTYYYWGQVTQVTVSS
  polyreactivity (PSR sort gate): low polyreactivity

## QVQLVESGGGLVQAGGSLRLSCAASGFTFYNYAMGWFRQATGKERELVAASNSGGSTYYADSVKGRFTSSRDNATNTVYLQMNSLKPEDTAVDYFAARSYYQYRRYYSWGQGTQVTVSS
  polyreactivity (PSR sort gate): high polyreactivity

## QVQLVESGGGLVQAGGSLRLSCAASGFTFYNYAMGWYRQAPGKERELVAAISYSGGSTYYADSVKGRFTISRDNAKNTVYLQMNSLKPEDTAVYYCAVVWWIQYVPGSYHAGYYWGQGTQVTVSS
  polyreactivity (PSR sort gate): high polyreactivity

## QVQLVESGGGLVQAGGSLRLSCAASGFTFYQYAMGWYRQAPGKERELVAAISSSGTSTYYADSVKGRFTISRDNAKNTVYLQMNSLKPEDTAVYYCAKDKSPYGYATNQYRKYYYWGQGTQVTVSS
  polyreactivity (PSR sort gate): low polyreactivity
